This note sets out measurements from US20220290196A1, “GENETICALLY ENGINEERED MICROBES AND BIOSYNTHETIC METHODS” (The Regents of the University of California, priority 2019, published 2022).

Substrate in this data set: N[C@@H](Cc1c[nH]c2ccccc12)C(=O)O
The experiment in a line: Kinetic characterization of Tar14-catalyzed chlorination of L-tryptophan. The format is biochemical, Saccharomonospora sp. CNQ-490. Conditions: other: Tar14, L-Trp chlorination, 30° C., pH 7.6. From the text:
To determine kinetic parameters for Tar14-catalyzed chlorination of L-tryptophan, phenol was first tested as an internal standard for quantification of the product (L-6-chlorotryptophan) formation. An HPLC method that gives separation of substrate/product/internal standard peaks (method 4) was developed (FIGS. 10A and 108). It was also verified that activity of Tar14 was not affected by the presence of phenol in the reaction mixture. Using commercial standard of L-6-chlorotryptophan and phenol mixed at known concentrations, a calibration curve was built (FIGS. 10A and 10B).
Tar14 reaction mixture of total volume 100 μL in 1.5 mL Eppendorf tube was composed of the following components:
Buffer (10 mM Tris, 10% glycerol, pH 7.6) up to 100 μL
Tar14 (added last): 2.5 μM
The reactions were incubated at 30° C. for 5, 10, 25, 45, 60, 120, and 240 min, after which the assays were quenched by addition of equal volume of HPLC grade methanol and frozen at −70° C. till further analysis by HPLC. All assays were performed in triplicates for each substrate concentration and every time point. In parallel, for each time point and substrate concentration, assays with no added phenol and with no added enzyme were used as controls.
Product formation was quantitated by calculating the ratio of peak areas of product to internal standard and fitting that value to a calibration curve. […]

B1: Saccharomonospora sp. CNQ-490 Tar14 (flavin-dependent tryptophan halogenase), wild type, SEQ ID NO: 3 (expressed SEQ ID NO: 4; expressed with cleaved His tag … (protein)
chain: MSVSGSERSAEGNRKKRVVIVGGGTAGWMTASYLTAAFGDRVDLTVVESAQIGTIGVGEATFSDIRHFFEFLRLEESDWMPECNATYKLAVRFENWREPGHHFYHPFEQMSSVDGFPLSDWWLRNPTTSRFDKDSFVMTSLCDAGVSPRYLDGSLIDQDFVEQERDDDSARSTIAEYQGAQFPYAYHFEAHLLAKYLTGYATRRGTRHIVDNVVDVALDERGWISHVRTEEHGDLEADLFVDCTGFRGLLLNKALGEPFVSYQDTLPNDSAVALQVPLDMEREPIRPCTTATAQEAGWIWTIPLISRVGTGYVYASDYTTPEQAERVLRDFVGPAAADVPANHIKMRIGRSRRSWVNNCVGVGLSSGFVEPLESTGIFFIHHAIEQIVKYFPSGGAGDDRLRELYNRSVGHVMDGVREFLVLHYRSAKRADNQYWKDTKTRTVPDSLAERIEFWKHKVPDAETVYPYYHGLPPYSYNCILLGMGGIDVNYSPALDWANEKAALAEFERIRVKAEKLVQELPTQNEYFAAMRAGR
notes: flavin reductase Tar15 and PtdH as helper enzymes
For B1, the Michaelis-Menten constant (Km) came to 12.0 ± 1.9 µM.

Broadly, the Km is the concentration of substrate that gives half-maximal velocity.
